The target in assay [1] is T1, EGFR-Fc (#344-ER, R&D Systems) (UniProt P00533 25-645).
T1 construct: Bought reagent; not shown: Fc part of the bought fusion
Briefly: SPR, Biacore T100; ME-03S captured on human Fab binder, EGFR-Fc injected. Here is the method:
(§1) In addition, the affinities of the prepared anti-c-Met/anti-EGFR bispecific antibody toward two types of antigens (c-Met/EGFR) were each identified using Biacore T100 (GE). A human Fab binder (GE Healthcare) was immobilized at the surface of a CM5 chip (#BR-1005-30, GE) according to the manufacturer's specifications. […] 10 mM Glycine-HCl (pH 1.5) solution was injected thereto to regenerate the surface. In order to measure affinity, the data obtained from this experiment was fitted using BIAevaluation software (GE Healthcare, Biacore T100 evaluation software).
On the technique in general: In SPR one partner is held on a chip, and binding of the other changes the refractive index at the surface.

Assay [2] addresses T2, c-Met-Fc (#358-MT/CF, R&D Systems) (human, UniProt P08581 25-932).
T2 construct: also called human c-Met/Fc fusion protein (R&D Systems); not shown: Fc part of the bought fusion
The assay can be described thus: SPR, Biacore T100; ME-03S captured on human Fab binder, c-Met-Fc injected. The procedure: as §1

T2 sequence (P08581 25-932 limits assumed): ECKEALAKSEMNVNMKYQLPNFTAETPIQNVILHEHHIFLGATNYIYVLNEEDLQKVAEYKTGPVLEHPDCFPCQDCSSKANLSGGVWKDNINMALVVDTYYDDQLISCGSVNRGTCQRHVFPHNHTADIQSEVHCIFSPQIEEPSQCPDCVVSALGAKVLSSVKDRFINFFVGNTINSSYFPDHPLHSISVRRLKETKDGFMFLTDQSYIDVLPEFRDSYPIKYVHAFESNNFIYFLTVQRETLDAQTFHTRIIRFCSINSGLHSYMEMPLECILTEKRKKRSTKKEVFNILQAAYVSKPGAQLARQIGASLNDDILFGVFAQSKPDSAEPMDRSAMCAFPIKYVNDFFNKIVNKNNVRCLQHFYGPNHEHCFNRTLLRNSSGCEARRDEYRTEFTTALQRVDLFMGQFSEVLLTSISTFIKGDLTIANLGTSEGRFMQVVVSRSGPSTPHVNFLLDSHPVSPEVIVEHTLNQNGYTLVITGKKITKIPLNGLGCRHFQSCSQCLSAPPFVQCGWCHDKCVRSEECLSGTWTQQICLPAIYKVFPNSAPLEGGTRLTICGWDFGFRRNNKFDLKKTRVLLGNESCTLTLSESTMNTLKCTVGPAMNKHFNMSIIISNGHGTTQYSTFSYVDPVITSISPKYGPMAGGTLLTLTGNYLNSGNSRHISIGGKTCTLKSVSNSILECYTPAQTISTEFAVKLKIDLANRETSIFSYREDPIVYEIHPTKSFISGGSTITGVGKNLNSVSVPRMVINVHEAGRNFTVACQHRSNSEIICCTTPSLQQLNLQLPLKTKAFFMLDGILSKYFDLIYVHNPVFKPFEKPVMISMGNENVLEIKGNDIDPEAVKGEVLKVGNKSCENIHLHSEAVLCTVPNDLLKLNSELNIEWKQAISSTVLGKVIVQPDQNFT

B1: anti-c-Met/anti-EGFR bispecific antibody ME-03S (bispecific antibody)
heavy: EVQLVESGGGLVQPGGSLRLSCAASGFTFTDYYMSWVRQAPGKGLEWLGFIRNKANGYTTEYSASVKGRFTISRDNSKNTLYLQMNSLRAEDTAVYYCARDNWFAYWGQGTLVTVSSASTKGPSVFPLAPCSRSTSESTAALGCLVKDYFPEPVTVSWNSGALTSGVHTFPAVLQSSGLYSLSSVVTVPSSNFGTQTYTCNVDHKPSNTKVDKTVERKCCVECPPCPAPPVAGPSVFLFPPKPKDTLMISRTPEVTCVVVDVSHEDPEVQFNWYVDGVEVHNAKTKPREEQFNSTFRVVSVLTVVHQDWLNGKEYKCKVSNKGLPAPIEKTISKTKGQPREPQVYTLPPSREEMTKNQVSLTCLVKGFYPSDIAVEWESNGQPENNYKTTPPMLDSDGSFFLYSKLTVDKSRWQQGNVFSCSVMHEALHNHYTQKSLSLSPGKGGGGSGGGGSQVQLVQSGAEVKKPGSSVKVSCKASGFTFTDYKIHWVRQAPGQCLEWMGYINPNSGYSTYASKFQGRVTITADKSTSTAYMELSSLRSEDTAVYYCARLSPGGYYVMDAWGQGTTVTVSSGGGGSGGGGSGGGGSDIQMTQSPSSLSASVGDRVTITCRASQGINNYLNWYQQKPGKAPKLLIYNTNNLQTGVPSRFSGSGSGTEFTLTISSLQPEDEATYYCLQHNSFPTFGQCTKLEIKRT
light: DIQMTQSPSSLSASVGDRVTITCKSSQSLLASGNQNNYLAWYQQKPGKAPKMLIIWASTRVSGVPSRFSGSGSGTDFTLTISSLQPEDFATYYCQQSYSRPYTFGQGTKVEIKRTVAAPSVFIFPPSDEQLKSGTASVVCLLNNFYPREAKVQWKVDNALQSGNSQESVTEQDSKDSTYSLSSTLTLSKADYEKHKVYACEVTHQGLSSPVTKSFNRGEC
Consider B1, for which, in assay [1], the Kd came to 120 pM, the off-rate (koff) was 2.7e-05 s⁻¹ and the kon was determined as 240000 M⁻¹ s⁻¹. Further, in assay [2], the Kd was found to be 140 pM, the koff worked out at 9.3e-05 s⁻¹ and the kon was determined as 660000 M⁻¹ s⁻¹.

As a reminder, the Kd is the equilibrium constant for the complex coming apart. Low values mean higher affinity, high ones lower affinity. A word on the koff: it is the rate constant with which the complex falls apart. Read a high koff as fast dissociation. The kon is the second-order rate constant of association.

The record behind these values is patent US20140302029A1 (SAMSUNG ELECTRONICS, published 2014).
